Measured values: patent US20250361544A1, “TYPE III-D CRISPR-CAS SYSTEM AND USES THEREOF” (BOARD OF REGENTS, THE UNIVERSITY OF TEXAS SYSTEM, published 2025)

B1: Csx19 subunit of the Synechocystis sp. PCC 6803 Type III-Dv complex (other)
chain: MPAGGRLMKNLYHYHQYEITLESAVDSCKNHLQAAIGLLYSPQKCELVKLDNSGKLVDSYNRLKFNNLGVFEARFFNLNCELRWVNESNGNGTAVLLSESDITLTGFEKGLQEFITAIDQQYLLWGEPAKHPPNADGWQRLAEARIGKLDIPLDNPLKPKDRVFLTSEEYIAEVDDFGNCAVIDERLIKLEVK
notes: Untagged, co-expressed from pPF2434 in E. coli; one copy in the complex
B2: Cas7-Cas5-Cas11 fusion subunit of the Synechocystis sp. PCC 6803 Type III-Dv complex (other)
chain: MRGIEITITMQSDWHVGTGMGRGELDSVVQRDGDNLPYIPGKTLTGILRDSCEQVALGLDNGQTRGLWHGWINFIFGDQPALAQGAIEPEPRPALIAIGSAHLDPKLKAAFQGKKQLQEAIAFMKPGVAIDAITGTAKKDFLRFEEVVRLGAKLTAEVELNLPDNLSETNKKVIAGILASGAKLTERLGGKRRRGNGRCELKFSGYSDQQIQWLKDNYQSVDQPPKYQQNKLQSAGDNPEQQPPWHIIPLTIKTLSPVVLPARTVGNVVECLDYIPGRYLLGYIHKTLGEYFDVSQAIAAGDLIITNATIKIDGKAGRATPFCLFGEKLDGGLGKGKGVYNRFQESEPDGIQLKGERGGYVGQFEQEQRNLPNTGKINSELFTHNTIQDDVQRPTSDVGGVYSYEAIIAGQTFVAELRLPDSLVKQITSKNKNWQAQLKATIRIGQSKKDQYGKIEVTSGNSADLPKPTGNNKTLSIWFLSDILLRGDRLNFNATPDDLKKYLENALDIKLKERSDNDLICIALRSQRTESWQVRWGLPRPSLVGWQAGSCLIYDIESGTVNAEKLQELMITGIGDRCTEGYGQIGFNDPLLSASLGKLTAKPKASNNQSQNSQSNPLPTNHPTQDYARLIEKAAWREAIQNKALALASSRAKREEILGIKIMGKDSQPTMTQLGGFRSVLKRLHSRNNRDIVTGYLTALEQVSNRKEKWSNTSQGLTKIRNLVTQENLIWNHLDIDFSPLTITQNGVNQLKSELWAEAVRTLVDAIIRGHKRDLEKAQENESNQQSQGAA
notes: Untagged, co-expressed from pPF2434 in E. coli; one copy in the complex; also called Cas7-5-11; Cas5-Cas7-Cas11

What was measured:
[1] = biological target: T1, Cas10 subunit of the Synechocystis sp. PCC 6803 Type III-Dv CRISPR-Cas complex, with N-terminal His6 tag and … (Synechocystis sp. PCC 6803); experiment: cryo-EM structure (summary of Example 1)
T1 construct: Whole gene amplified from Synechocystis genomic DNA and co-expressed in E. coli from pPF2434; The complex also holds a 37-nt crRNA; also called His6-TEV-Cas10; N-His6-tagged Cas10; not shown: TEV cleavage was inefficient, so
T1 chain: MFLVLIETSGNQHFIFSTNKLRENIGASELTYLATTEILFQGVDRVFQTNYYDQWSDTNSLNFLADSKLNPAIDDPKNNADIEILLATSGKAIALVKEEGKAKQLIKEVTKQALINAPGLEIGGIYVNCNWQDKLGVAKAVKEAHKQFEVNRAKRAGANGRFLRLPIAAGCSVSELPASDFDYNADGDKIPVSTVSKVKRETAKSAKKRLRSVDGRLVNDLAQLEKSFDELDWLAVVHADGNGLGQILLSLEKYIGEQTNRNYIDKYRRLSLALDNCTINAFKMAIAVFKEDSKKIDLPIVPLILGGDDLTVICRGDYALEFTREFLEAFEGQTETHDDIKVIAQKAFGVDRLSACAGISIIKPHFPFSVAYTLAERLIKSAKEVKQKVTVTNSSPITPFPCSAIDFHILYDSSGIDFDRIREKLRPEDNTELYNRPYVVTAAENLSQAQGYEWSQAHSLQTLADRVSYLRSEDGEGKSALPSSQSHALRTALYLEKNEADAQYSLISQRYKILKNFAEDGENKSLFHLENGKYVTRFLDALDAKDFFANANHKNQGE
Method: (§1) Fully assembled Type III-D binary complex was diluted to a concentration of 0.3 mg/ml in SEC buffer before 2.5 μl of sample was added to a quantifoil 1.2/1.3 grid that was glow discharged for 1 minute. Sample was applied to the grid in an FEI Vitrobot MarkIV kept at 100% humidity and 4° C. before blotting for 5.5 seconds with a force of 0. For the ssRNA target-bound complex, non-self ssRNA was mixed with the binary complex with a 2:1 molar ratio of RNA:Binary complex in SEC buffer to a final protein concentration of 0.3 mg/mL. Grids of the target-bound complex were frozen identical to that of the binary complex. Both grids were loaded to an FEI Titan Krios (Sauer Structural Biology Lab, University of Texas at Austin) operating at 300 kV. Images were taken at a pixel size of 0.81 Å/pixel with a dose rate of 10.6 e⁻/pixel/s for 5 seconds using a Gatan K3 direct electron detector, giving a final dosage of 80.5 e⁻/Å². Data collection was automated using SerialEM using a defocus range of −1.2 to −2.2 μm.

[2] = biological target: B2; experiment: cryo-EM structure (summary of Example 1)
Method: as §1

[3] = biological target: T2, Cas7-Cas7 fusion subunit of the Synechocystis sp. PCC 6803 Type III-Dv complex (Synechocystis sp. PCC 6803); experiment: cryo-EM structure of the binary complex, 2.5 Å
T2 construct: Untagged, co-expressed from pPF2434 in E. coli; one copy in the complex; also called Cas7-2x; Cas7_2x
T2 chain: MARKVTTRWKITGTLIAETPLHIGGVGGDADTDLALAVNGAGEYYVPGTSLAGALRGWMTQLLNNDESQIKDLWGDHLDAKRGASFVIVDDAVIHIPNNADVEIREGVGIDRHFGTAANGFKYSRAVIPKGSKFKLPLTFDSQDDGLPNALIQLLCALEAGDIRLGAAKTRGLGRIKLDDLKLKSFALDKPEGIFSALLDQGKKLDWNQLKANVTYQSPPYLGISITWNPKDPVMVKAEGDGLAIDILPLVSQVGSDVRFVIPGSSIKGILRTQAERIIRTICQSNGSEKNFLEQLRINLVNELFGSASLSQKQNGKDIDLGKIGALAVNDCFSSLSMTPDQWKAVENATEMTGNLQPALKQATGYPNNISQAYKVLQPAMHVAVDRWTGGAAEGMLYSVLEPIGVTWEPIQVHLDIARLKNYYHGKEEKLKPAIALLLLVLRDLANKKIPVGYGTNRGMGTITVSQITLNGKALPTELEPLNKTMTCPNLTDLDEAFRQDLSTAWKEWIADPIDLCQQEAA
Method: as §1
(§2) To delineate the architecture of this Type III-Dv effector, we used cryo-EM to determine a 2.5-Å resolution structure of the complex containing the nt crRNA (FIG. 1e,f, FIG. 8). To gain preliminary insights, we generated initial models of each subunit using Alphafold 2. […]

[4] = biological target: Type III-Dv effector complex (Cas10, Cas7-Cas5-Cas11, Cas7-2x, Csx19, Cas7-insertion) (Synechocystis sp. PCC 6803); experiment: structure; cryo-EM 2.5 A binary complex with 37-nt crRNA; settings: tags: N-terminal His6-TEV on Cas10
Method: as §1, §2

B1
binding result [1]: binds | binding result [2]: binds

B2
binding result [3]: binds

ACUGAAACUGUAGUAGAACCAAUCGGGGUCGUCAAUA (ssRNA) [mature crRNA spacer 1]
binding result [4]: binds
